Patent publication US20120301476A1 (TORAY INDUSTRIES, published 2012)

Assays:
[1] = target: T1, human CAPRIN-1 protein on the cell surfaces of human cancer cell lines and in human cancer tissues (human, UniProt Q14444 2-709); assay: cell-based or functional assay
T1 sequence (looked up): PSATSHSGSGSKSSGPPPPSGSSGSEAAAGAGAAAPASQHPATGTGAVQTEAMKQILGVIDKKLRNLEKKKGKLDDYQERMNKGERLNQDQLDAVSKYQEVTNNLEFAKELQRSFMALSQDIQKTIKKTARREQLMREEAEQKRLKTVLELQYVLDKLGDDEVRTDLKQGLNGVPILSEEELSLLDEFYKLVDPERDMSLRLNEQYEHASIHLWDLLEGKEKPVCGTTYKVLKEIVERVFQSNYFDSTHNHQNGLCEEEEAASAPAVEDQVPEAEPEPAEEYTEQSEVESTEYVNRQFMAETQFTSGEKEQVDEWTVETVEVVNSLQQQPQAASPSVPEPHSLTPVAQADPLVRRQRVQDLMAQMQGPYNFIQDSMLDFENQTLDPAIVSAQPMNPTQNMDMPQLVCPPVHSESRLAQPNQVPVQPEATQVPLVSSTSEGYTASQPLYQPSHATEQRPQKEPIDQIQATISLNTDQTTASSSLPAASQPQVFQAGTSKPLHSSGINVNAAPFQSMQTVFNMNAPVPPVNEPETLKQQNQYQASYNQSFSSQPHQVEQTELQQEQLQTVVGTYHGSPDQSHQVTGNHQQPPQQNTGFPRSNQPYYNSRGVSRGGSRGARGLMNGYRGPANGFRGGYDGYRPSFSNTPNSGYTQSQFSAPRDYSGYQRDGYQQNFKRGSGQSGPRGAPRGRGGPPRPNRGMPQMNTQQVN

[2] = target: T2, recombinant human CAPRIN-1 protein having the amino acid sequence represented by SEQ ID NO: 2 (prepared in … (human, UniProt Q14444 1-709, limits assumed)); assay: SPR (BIACORE2000), CAPRIN-1 recombinant protein amine-coupled to CM5 chip, antibody as analyte
T2 construct: Expressed in E. coli from pET30a; the His-tag was cleaved off with enterokinase; also called CAPRIN-1 recombinant protein; CAPRIN-1 molecule
T2 sequence: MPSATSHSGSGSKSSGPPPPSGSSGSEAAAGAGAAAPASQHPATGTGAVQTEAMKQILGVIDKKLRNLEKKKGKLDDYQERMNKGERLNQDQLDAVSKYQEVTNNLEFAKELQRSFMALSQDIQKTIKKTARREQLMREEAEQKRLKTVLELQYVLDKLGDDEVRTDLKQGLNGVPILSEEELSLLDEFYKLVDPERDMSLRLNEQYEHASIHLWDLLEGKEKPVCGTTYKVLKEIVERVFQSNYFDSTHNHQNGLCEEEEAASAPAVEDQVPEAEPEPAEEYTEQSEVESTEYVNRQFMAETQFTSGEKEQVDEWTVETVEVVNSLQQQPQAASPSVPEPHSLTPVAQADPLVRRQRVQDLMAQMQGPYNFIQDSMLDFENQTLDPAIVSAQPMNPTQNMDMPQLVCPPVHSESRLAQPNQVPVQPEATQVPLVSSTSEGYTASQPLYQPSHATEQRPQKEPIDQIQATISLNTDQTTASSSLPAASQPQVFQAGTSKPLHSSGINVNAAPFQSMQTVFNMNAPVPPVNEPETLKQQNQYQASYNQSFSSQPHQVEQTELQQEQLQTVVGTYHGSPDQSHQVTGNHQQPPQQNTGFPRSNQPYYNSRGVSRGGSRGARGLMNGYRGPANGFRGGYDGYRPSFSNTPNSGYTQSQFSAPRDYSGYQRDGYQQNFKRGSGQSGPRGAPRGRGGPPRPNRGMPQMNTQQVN
Method: As a reference control (reference cell), a sensor chip with 20 μg/ml bovine serum-derived albumin immobilized thereto by the same method was used. A sensor chip to which the CAPRIN-1 molecule had been immobilized was set in BIACORE2000, 40 μL, each of the antibody solution (analyte) prepared to have a concentration (100, 80, 40, 20, 10, 5, or 2.5 μg/mL) was applied at a flow rate of 20 μL/minute, the surface plasmon resonance angle at the time of binding of an antibody to the CAPRIN-1 molecule immobilized on the sensor chip was measured, so that each RU value (Resonance Unit) was obtained. Next, a running buffer HBS-EP solution (GE) was applied and then the resonance angle upon dissociation of the antibody from the CAPRIN-1 molecule was measured, and then the RU value at this time was obtained. An antibody solution was similarly applied to a reference control (reference cell) sensor chip, the resonance angle at the time of immobilization reaction and the resonance angle at the time of dissociation reaction were measured, and thus the background RU values were obtained. […] Association rate constant (kₒₙ) and dissociation rate constant (koff) were found from the thus obtained RU value at each antibody concentration using affinity analysis software BIA evaluation, so that affinity constant Ka(=kₒₙ/koff) was calculated.

B1: human-chicken chimeric antibody #1 having the chicken monoclonal antibody #1 variable region (antibody, V domains shown)
VH: AVTLDESGGGLQMSRGGLSLVCKASGFDFSSYQMNWIRQAPGKGLEFVAAINKFGNSTGHGAAVKGRVTISRDNGQSTVRLQLNNLRAEDTAIYFCTKHAYGYCGSGTWCAAGEIDAWGHGTEVIVSS
VL: QAASTQPSSVSANPGETVEITCSGGGSYSYGWFQQKSPGSAPVTVIYYNNKRPSDIPSRFSGSKSGSTGTLTITGVQADDEAVYYCGSGDSTDTAVFGAGTTLTVLG
notes: also called anti-CAPRIN-1 antibody #1; human-chicken chimeric monoclonal antibody (#1); not shown: human IgG1 H-chain constant region; human IgG1 L-chain constant region
[1]
  cytotoxic activity (ADCC) against A549: 36.3%
  cytotoxic activity (ADCC) against ACHN: 26%
  cytotoxic activity (ADCC) against AML5: 13.1%
  cytotoxic activity (ADCC) against Caki-1: 27%
  cytotoxic activity (ADCC) against KYSE180: 27.6%
  cytotoxic activity (ADCC) against MDA-MB-157: 40%
  cytotoxic activity (ADCC) against MNK28: 21.7%
  cytotoxic activity (ADCC) against MNK45: 25.3%
  cytotoxic activity (ADCC) against QG56: 33%
  cytotoxic activity (ADCC) against Ramos: 11.7%
  cytotoxic activity (ADCC) against SW480: 26.9%
  cytotoxic activity (ADCC) against SW756: 29.7%
  cytotoxic activity (ADCC) against T24: 25.6%
  cytotoxic activity (ADCC) against T98G: 18%
  cytotoxic activity (ADCC) against U373: 23.3%
[2]
  Ka: 4.6e+07 M⁻¹
